Starred links: 1 amine or outer side, 2 acyl side, 3 side chain; linkers in the order of their positions; H or OH if unused. Non-standard residues stand in square brackets, D forms with d. Ala(piperidin-4-yl) = O=C([C@H](CC1CCN([*:3])CC1)N[*:1])[*:2]; hArg = N=C(N)NCCCC[C@H](N)C(=O)O; 3Pal = N[C@@H](Cc1cccnc1)C(=O)O; 4Pal = N[C@@H](Cc1ccncc1)C(=O)O; Cha = N[C@@H](CC1CCCCC1)C(=O)O; Cit = NC(=O)NCCC[C@H](N)C(=O)O; hSer = N[C@@H](CCO)C(=O)O; Nle = CCCC[C@H](N)C(=O)O; Aib = CC(C)(N)C(=O)O
What was measured:
human Y2 receptor [1] = target: T1, human Y2 receptor (Homo sapiens, UniProt P49146); assay: Human Y2 Receptor G Protein Binding Assay (GBA), [35S]GTPγS; assay type: biochemical; settings: EC50 of test compound/EC50 of PYY(3-36) (PYY3-36 taken as 1), hY2R/CHO membrane fraction
T1 construct: expressed in transfected cells; membrane fraction
T1 sequence (P49146 1-381): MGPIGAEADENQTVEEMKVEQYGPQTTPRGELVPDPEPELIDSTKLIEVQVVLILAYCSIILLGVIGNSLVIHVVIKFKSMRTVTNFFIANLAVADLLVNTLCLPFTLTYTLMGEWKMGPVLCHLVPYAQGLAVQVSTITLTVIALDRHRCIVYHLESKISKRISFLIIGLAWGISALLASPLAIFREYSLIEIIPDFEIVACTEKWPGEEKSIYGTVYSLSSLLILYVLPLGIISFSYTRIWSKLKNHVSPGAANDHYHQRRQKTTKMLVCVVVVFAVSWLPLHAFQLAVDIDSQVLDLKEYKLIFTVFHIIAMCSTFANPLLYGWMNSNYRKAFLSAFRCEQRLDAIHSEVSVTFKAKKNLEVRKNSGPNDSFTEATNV
How it was run: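 Agonism measured as [35S]GTPγS binding, read by GF/C filtration and scintillation counting after 120 min at room temperature, using human Y2 membranes at 1 μg protein/mL in pH 7.4 Tris/MgCl2/NaCl/GDP buffer. Compound serially diluted 100 μM–1 nM; EC50 normalized to PYY(3-36) (ratio = compound/PYY).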

human Y2 receptor [2] = target: T1, human Y2 receptor; assay: Receptor Binding Assay (RBA) for Human Y2, [125I]-PYY displacement on hY2R/CHO membrane fraction; settings: IC50 of test compound/IC50 of PYY(3-36) (PYY(3-36) taken as 1)
How it was run: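 hY2R stably expressed in CHO/dhfr− cells; membrane fraction prepared from cells disrupted in 10 mM NaHCO3, 5 mM EDTA buffer with protease inhibitors. Binding read as displacement of [125I]-PYY.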

Substance | GBA EC50 Ratio (human Y2 receptor [1]) | RBA IC50 Ratio (human Y2 receptor [2])
Ac-[D-Pro24, Pya(3)26, Cha27,28,36, Aib31]-PYY(23-36) (Ac-S[dP]R[3Pal][Cha][Cha]NL[Aib]TRQR[Cha]-NH2; SMILES CC(=O)N[C@@H](CO)C(=O)N1CCC[C@@H]1C(=O)N[C@@H](CCCNC(=N)N)C(=O)N[C@@H](Cc1cccnc1)C(=O)N[C@@H](CC1CCCCC1)C(=O)N[C@@H](CC1CCCCC1)C(=O)N[C@@H](CC(N)=O)C(=O)N[C@@H](CC(C)C)C(=O)NC(C)(C)C(=O)N[C@H](C(=O)N[C@@H](CCCNC(=N)N)C(=O)N[C@@H](CCC(N)=O)C(=O)N[C@@H](CCCNC(=N)N)C(=O)N[C@@H](CC1CCCCC1)C(N)=O)[C@@H](C)O) [compound No. 148] | 1.2 | 3.3
Ac-[D-Pro24, Pya(4)26, Ala(4Pip)27, Aib28,31, Lys30, Cha36]-PYY(23-36) [compound No. 308] (Ac-S[dP]R[4Pal][Ala(piperidin-4-yl)][Aib]NK[Aib]TRQR[Cha]-NH2; SMILES CC(=O)N[C@@H](CO)C(=O)N1CCC[C@@H]1C(=O)N[C@@H](CCCNC(=N)N)C(=O)N[C@@H](Cc1ccncc1)C(=O)N[C@@H](CC1CCNCC1)C(=O)NC(C)(C)C(=O)N[C@@H](CC(N)=O)C(=O)N[C@@H](CCCCN)C(=O)NC(C)(C)C(=O)N[C@H](C(=O)N[C@@H](CCCNC(=N)N)C(=O)N[C@@H](CCC(N)=O)C(=O)N[C@@H](CCCNC(=N)N)C(=O)N[C@@H](CC1CCCCC1)C(N)=O)[C@@H](C)O) | 11 | 17
Ac-[D-Pro24, Pya(4)26, Ala(4Pip)27, Aib28,31, Lys30, Cha36]-PYY(23-36) [compound No. 309] (Ac-S[dP]R[4Pal][Ala(piperidin-4-yl)][Aib]NK[Aib]TRQR[Cha]-NH2; SMILES CC(=O)N[C@@H](CO)C(=O)N1CCC[C@@H]1C(=O)N[C@@H](CCCNC(=N)N)C(=O)N[C@@H](Cc1ccncc1)C(=O)N[C@@H](CC1CCNCC1)C(=O)NC(C)(C)C(=O)N[C@@H](CC(N)=O)C(=O)N[C@@H](CCCCN)C(=O)NC(C)(C)C(=O)N[C@H](C(=O)N[C@@H](CCCNC(=N)N)C(=O)N[C@@H](CCC(N)=O)C(=O)N[C@@H](CCCNC(=N)N)C(=O)N[C@@H](CC1CCCCC1)C(N)=O)[C@@H](C)O) | 3.9 | 3.8
Ac-[D-Pro24, Pya(4)26, Cha27,36, Aib28,31, Arg30]-PYY(23-36) (Ac-S[dP]R[4Pal][Cha][Aib]NR[Aib]TRQR[Cha]-NH2; SMILES CC(=O)N[C@@H](CO)C(=O)N1CCC[C@@H]1C(=O)N[C@@H](CCCNC(=N)N)C(=O)N[C@@H](Cc1ccncc1)C(=O)N[C@@H](CC1CCCCC1)C(=O)NC(C)(C)C(=O)N[C@@H](CC(N)=O)C(=O)N[C@@H](CCCNC(=N)N)C(=O)NC(C)(C)C(=O)N[C@H](C(=O)N[C@@H](CCCNC(=N)N)C(=O)N[C@@H](CCC(N)=O)C(=O)N[C@@H](CCCNC(=N)N)C(=O)N[C@@H](CC1CCCCC1)C(N)=O)[C@@H](C)O) [compound No. 263] | 1.8 | 1.1
Ac-[D-Pro24, Pya(4)26, Cha27,36, Aib28,31, Cit30]-PYY(23-36) (Ac-S[dP]R[4Pal][Cha][Aib]N[Cit][Aib]TRQR[Cha]-NH2; SMILES CC(=O)N[C@@H](CO)C(=O)N1CCC[C@@H]1C(=O)N[C@@H](CCCNC(=N)N)C(=O)N[C@@H](Cc1ccncc1)C(=O)N[C@@H](CC1CCCCC1)C(=O)NC(C)(C)C(=O)N[C@@H](CC(N)=O)C(=O)N[C@@H](CCCNC(N)=O)C(=O)NC(C)(C)C(=O)N[C@H](C(=O)N[C@@H](CCCNC(=N)N)C(=O)N[C@@H](CCC(N)=O)C(=O)N[C@@H](CCCNC(=N)N)C(=O)N[C@@H](CC1CCCCC1)C(N)=O)[C@@H](C)O) [compound No. 266] | 3.1 | 2.7
Ac-[D-Pro24, Pya(4)26, Cha27,36, Aib28,31, Har30]-PYY(23-36) (Ac-S[dP]R[4Pal][Cha][Aib]N[hArg][Aib]TRQR[Cha]-NH2; SMILES CC(=O)N[C@@H](CO)C(=O)N1CCC[C@@H]1C(=O)N[C@@H](CCCNC(=N)N)C(=O)N[C@@H](Cc1ccncc1)C(=O)N[C@@H](CC1CCCCC1)C(=O)NC(C)(C)C(=O)N[C@@H](CC(N)=O)C(=O)N[C@@H](CCCCNC(=N)N)C(=O)NC(C)(C)C(=O)N[C@H](C(=O)N[C@@H](CCCNC(=N)N)C(=O)N[C@@H](CCC(N)=O)C(=O)N[C@@H](CCCNC(=N)N)C(=O)N[C@@H](CC1CCCCC1)C(N)=O)[C@@H](C)O) [compound No. 277] | 0.79 | 0.36
Ac-[D-Pro24, Pya(4)26, Cha27,36, Aib28,31, Hse30]-PYY(23-36) (Ac-S[dP]R[4Pal][Cha][Aib]N[hSer][Aib]TRQR[Cha]-NH2; SMILES CC(=O)N[C@@H](CO)C(=O)N1CCC[C@@H]1C(=O)N[C@@H](CCCNC(=N)N)C(=O)N[C@@H](Cc1ccncc1)C(=O)N[C@@H](CC1CCCCC1)C(=O)NC(C)(C)C(=O)N[C@@H](CC(N)=O)C(=O)N[C@@H](CCO)C(=O)NC(C)(C)C(=O)N[C@H](C(=O)N[C@@H](CCCNC(=N)N)C(=O)N[C@@H](CCC(N)=O)C(=O)N[C@@H](CCCNC(=N)N)C(=O)N[C@@H](CC1CCCCC1)C(N)=O)[C@@H](C)O) [compound No. 265] | 5.7 | 5.8
Ac-[D-Pro24, Pya(4)26, Cha27,36, Aib28,31, Lys30]-PYY(22-36) (Ac-AS[dP]R[4Pal][Cha][Aib]NK[Aib]TRQR[Cha]-NH2; SMILES CC(=O)N[C@@H](C)C(=O)N[C@@H](CO)C(=O)N1CCC[C@@H]1C(=O)N[C@@H](CCCNC(=N)N)C(=O)N[C@@H](Cc1ccncc1)C(=O)N[C@@H](CC1CCCCC1)C(=O)NC(C)(C)C(=O)N[C@@H](CC(N)=O)C(=O)N[C@@H](CCCCN)C(=O)NC(C)(C)C(=O)N[C@H](C(=O)N[C@@H](CCCNC(=N)N)C(=O)N[C@@H](CCC(N)=O)C(=O)N[C@@H](CCCNC(=N)N)C(=O)N[C@@H](CC1CCCCC1)C(N)=O)[C@@H](C)O) [compound No. 219] | 1.7 | 2.3
Ac-[D-Pro24, Pya(4)26, Cha27,36, Aib28,31, Lys30]-PYY(24-36) (Ac-[dP]R[4Pal][Cha][Aib]NK[Aib]TRQR[Cha]-NH2; SMILES CC(=O)N1CCC[C@@H]1C(=O)N[C@@H](CCCNC(=N)N)C(=O)N[C@@H](Cc1ccncc1)C(=O)N[C@@H](CC1CCCCC1)C(=O)NC(C)(C)C(=O)N[C@@H](CC(N)=O)C(=O)N[C@@H](CCCCN)C(=O)NC(C)(C)C(=O)N[C@H](C(=O)N[C@@H](CCCNC(=N)N)C(=O)N[C@@H](CCC(N)=O)C(=O)N[C@@H](CCCNC(=N)N)C(=O)N[C@@H](CC1CCCCC1)C(N)=O)[C@@H](C)O) [compound No. 251] | 0.56 | 0.68
Ac-[D-Pro24, Pya(4)26, Cha27,36, Aib28,31, Lys(Ac)30]-PYY(23-36) [compound No. 278] | 1.1 | 0.97
Ac-[D-Pro24, Pya(4)26, Cha27,36, Aib28,31, Lys(Hexyl)30]-PYY(23-36) [compound No. 279] | 1.3 | 1.0
Ac-[D-Pro24, Pya(4)26, Cha27,36, Aib28,31, Lys(Me2)30]-PYY(23-36) [compound No. 264] | 1.7 | 1.1
Ac-[D-Pro24, Pya(4)26, Cha27,36, Aib28,31, Nle30]-PYY(23-36) (Ac-S[dP]R[4Pal][Cha][Aib]N[Nle][Aib]TRQR[Cha]-NH2; SMILES CCCC[C@H](NC(=O)[C@H](CC(N)=O)NC(=O)C(C)(C)NC(=O)[C@H](CC1CCCCC1)NC(=O)[C@H](Cc1ccncc1)NC(=O)[C@H](CCCNC(=N)N)NC(=O)[C@H]1CCCN1C(=O)[C@H](CO)NC(C)=O)C(=O)NC(C)(C)C(=O)N[C@H](C(=O)N[C@@H](CCCNC(=N)N)C(=O)N[C@@H](CCC(N)=O)C(=O)N[C@@H](CCCNC(=N)N)C(=O)N[C@@H](CC1CCCCC1)C(N)=O)[C@@H](C)O) [compound No. 267] | 1.4 | 0.96
Ac-[D-Pro24, Pya(4)26, Cha27,36, Aib28,31, Orn30]-PYY(23-36) [compound No. 206] | 0.83 | 1.5
Ac-[D-Pro24, Pya(4)26, Cha27,36, Aib28,31, Trp30]-PYY(23-36) (Ac-S[dP]R[4Pal][Cha][Aib]NW[Aib]TRQR[Cha]-NH2; SMILES CC(=O)N[C@@H](CO)C(=O)N1CCC[C@@H]1C(=O)N[C@@H](CCCNC(=N)N)C(=O)N[C@@H](Cc1ccncc1)C(=O)N[C@@H](CC1CCCCC1)C(=O)NC(C)(C)C(=O)N[C@@H](CC(N)=O)C(=O)N[C@@H](Cc1c[nH]c2ccccc12)C(=O)NC(C)(C)C(=O)N[C@H](C(=O)N[C@@H](CCCNC(=N)N)C(=O)N[C@@H](CCC(N)=O)C(=O)N[C@@H](CCCNC(=N)N)C(=O)N[C@@H](CC1CCCCC1)C(N)=O)[C@@H](C)O) [compound No. 205] | 2.4 | 2.5

— US9260500B2, “Peptide and use thereof” (Takeda Pharmaceutical Company Limited, priority 2009, dated 2016)
